# According to patent US20130189255A1 (GlaxoSmithKline, published 2013):
# B1: GLP-1 (7-37) A8G, helical linker, DOM7h-14 dAb fusion (DAT0120) (other)
# chain: HGEGTFTSDVSSYLEGQAAKEFIAWLVKGRGKEAAAKEAAAKEAAAKELAAKEAAAKEAAAKEAAAKELAADIQMTQSPSSLSASVGDRVTITCRASQWIGSQLSWYQQKPGKAPKLLIMWRSSLQSGVPSRFSGSGSGTDFTLTISSLQPEDFATYYCAQGAALPRTFGQGTKVEIKR
# notes: also called GLP-1 A8G, helical linker, DOM7h-14 fusion; GLP-1 (7-37) A8G, helical linker, DOM7h-14 fusion
# B2: Rat serum albumin (other, UniProt P02770 25-608, looked up)
# chain: EAHKSEIAHRFKDLGEQHFKGLVLIAFSQYLQKCPYEEHIKLVQEVTDFAKTCVADENAENCDKSIHTLFGDKLCAIPKLRDNYGELADCCAKQEPERNECFLQHKDDNPNLPPFQRPEAEAMCTSFQENPTSFLGHYLHEVARRHPYFYAPELLYYAEKYNEVLTQCCTESDKAACLTPKLDAVKEKALVAAVRQRMKCSSMQRFGERAFKAWAVARMSQRFPNAEFAEITKLATDVTKINKECCHGDLLECADDRAELAKYMCENQATISSKLQACCDKPVLQKSQCLAEIEHDNIPADLPSIAADFVEDKEVCKNYAEAKDVFLGTFLYEYSRRHPDYSVSLLLRLAKKYEATLEKCCAEGDPPACYGTVLAEFQPLVEEPKNLVKTNCELYEKLGEYGFQNAVLVRYTQKAPQVSTPTLVEAARNLGRVGTKCCTLPEAQRLPCVEDYLSAILNRLCVLHEKTPVSEKVTKCCSGSLVERRPCFSALTVDETYVPKEFKAETFTFHSDICTLPDKEKQIKKQTALAELVKHKPKATEDQLKTVMGDFAQFVDKCCKAADKDNCFATEGPNLVARSKEALA
# notes: also called RSA
# B3: 2xGLP-1 (7-37) A8G DOM7h-14 dAb fusion (DAT0114) (other)
# chain: HGEGTFTSDVSSYLEGQAAKEFIAWLVKGRHGEGTFTSDVSSYLEGQAAKEFIAWLVKGRDIQMTQSPSSLSASVGDRVTITCRASQWIGSQLSWYQQKPGKAPKLLIMWRSSLQSGVPSRFSGSGSGTDFTLTISSLQPEDFATYYCAQGAALPRTFGQGTKVEIKA
# notes: also called 2xGLP-1 (7-37) A8G DOM7h-14 fusion; 2xGLP-1 A8G DOM7h-14 fusion
# What was measured:
# Rat serum albumin = molecular target: B2; experiment: SPR (Biacore), albumin immobilised on CM5 chip, fusion in solution
# Description: (§1) The analysis was performed using a CMS Biacore chip (carboxymethylated dextran matrix) that was coated with serum albumin. About 1000 resonance units (RUs) of each serum albumin to be tested (human, rat and mouse serum albumin) was immobilised in acetate buffer pH 5.5. […] Affinity (KD) was calculated from the BIACORE traces by fitting on-rate and off-rate curves to traces generated by concentrations of dAb in the region of the KD.
# Mouse serum albumin = molecular target: T1, Mouse serum albumin (mouse, UniProt P07724 25-608); experiment: as above
# T1 construct: also called MSA
# T1 sequence (P07724 25-608 limits assumed): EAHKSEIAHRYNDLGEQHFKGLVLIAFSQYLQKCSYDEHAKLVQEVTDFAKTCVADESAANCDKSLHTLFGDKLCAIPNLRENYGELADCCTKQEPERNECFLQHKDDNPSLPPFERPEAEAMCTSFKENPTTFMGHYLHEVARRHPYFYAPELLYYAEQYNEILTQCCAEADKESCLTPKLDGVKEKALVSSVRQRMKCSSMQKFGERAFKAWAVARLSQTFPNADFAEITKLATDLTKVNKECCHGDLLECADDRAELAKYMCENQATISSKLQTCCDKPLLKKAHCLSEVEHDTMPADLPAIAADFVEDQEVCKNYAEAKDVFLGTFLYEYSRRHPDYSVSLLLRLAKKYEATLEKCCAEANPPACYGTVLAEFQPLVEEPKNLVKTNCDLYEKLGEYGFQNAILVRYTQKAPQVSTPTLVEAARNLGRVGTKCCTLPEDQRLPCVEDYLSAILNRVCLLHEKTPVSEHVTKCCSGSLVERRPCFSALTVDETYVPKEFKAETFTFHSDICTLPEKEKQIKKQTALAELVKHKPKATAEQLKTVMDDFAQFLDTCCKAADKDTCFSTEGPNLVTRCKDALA
# Description: as §1
# Human serum albumin = molecular target: T2, Human serum albumin (human, UniProt P02768 25-609); experiment: as above
# T2 construct: also called HSA
# Description: as §1
# [1] = molecular target: T3, Exendin 4 (G4S linker)3 DOM7h-14 dAb fusion (DAT0115); experiment: SPR (Biacore), biotinylated albumin on streptavidin chip, fusion in solution
# T3 construct: also called Exendin 4 (G4S)3 DOM7h-14 fusion
# Description: The analysis was performed using a streptavidin chip (SA) coated with biotinylated serum albumin. 200-1000 resonance units (RUs) of each serum albumin was immobilised on the chip. Flow cell 1 was uncoated, flow cell 2 was coated with HSA, flow cell 3 was coated with RSA and flow cell 4 was coated with CSA.
# Affinity (KD) was calculated from the BIACORE traces by fitting on-rate and off-rate curves to traces generated by concentrations of dAb in the region of the KD.
Binder,Kd (Rat serum albumin),Kd (Mouse serum albumin),Kd (Human serum albumin),Kd [1]
B1,800 nM,110 nM,110 nM,–
B2,–,–,–,2000 nM
B3,700 nM,130 nM,150 nM,–
